The record followed here is patent US20030108991.

This data set has as its target T1, N-Succinyl-Ala-Ala-Pro-Phe-p-nitroanilide.
T1 chain: AAPF

B1: soluble keratinase (Bacillus licheniformis PWD-1 keratinase) (protein)
chain: AQTVPYGIPLIKADKVQAQGFKGANVKVAVLDTGIQASHPDLNVVGGASFVAGEAYNTDGNGHGTHVAGTVAALDNTTGVLGVAPSVSLYAVKVLNSSGSGSYSGIVSGIEWATTNGMDVINMSLGGASGSTAMKQAVDNAYARGVVVVAAAGNSGSSGNTNTIGYPAKYDSVIAVGAVDSNSNRASFSSVGAELEVMAPGAGVYSTYPTNTYATLNGTSMVSPHVAGAAALILSKHPNLSASQVRNRLSSTATYLGSSFYYGKGLINVEAAAQ
Turning to B1, the Michaelis-Menten constant (Km) was 220 µM.

In general, Km refers to the concentration of substrate that gives half-maximal velocity.
